Experimental data reported in article PMC10732536.

Biological target: Spz, activated cystine-knot domain (Drosophila melanogaster)
Experiment: non-reducing SDS-PAGE and immunoblot; proSpz cleaved by the activated proteases, in the absence of DTT (fig. S10); anti-Spz C106 antibody

stoichiometry N: 2
Substance: Spz, activated cystine-knot domain (domain or fragment)
